Patent publication US20150344570A1 (published 2015)

T1: FcgRIIb (human, UniProt P31994 43-217)
T1 construct: extracellular domain; also called FcγRIIb; 2b; not shown: His tag attached to the C terminus
T1 sequence (looked up): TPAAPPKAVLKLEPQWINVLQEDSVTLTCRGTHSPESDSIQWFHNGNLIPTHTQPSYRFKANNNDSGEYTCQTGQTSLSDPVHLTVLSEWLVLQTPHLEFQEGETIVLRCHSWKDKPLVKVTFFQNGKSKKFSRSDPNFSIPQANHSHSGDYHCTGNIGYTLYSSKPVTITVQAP

T2: FcgRIIaR (human, UniProt P12318 34-217)
T2 construct: extracellular domain; also called FcγRIIa R; FcgRIIa type R; not shown: His tag attached to the C terminus
T2 sequence (looked up): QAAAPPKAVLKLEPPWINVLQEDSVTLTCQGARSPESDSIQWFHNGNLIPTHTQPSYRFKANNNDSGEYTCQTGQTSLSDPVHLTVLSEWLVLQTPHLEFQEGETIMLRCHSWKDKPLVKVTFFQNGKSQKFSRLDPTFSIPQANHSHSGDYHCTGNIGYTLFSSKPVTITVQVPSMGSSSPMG

T3: FcgRIIaH (human, UniProt P12318 34-217)
T3 construct: extracellular domain; also called FcγRIIa H; FcgRIIa type H; not shown: His tag attached to the C terminus
T3 sequence (looked up): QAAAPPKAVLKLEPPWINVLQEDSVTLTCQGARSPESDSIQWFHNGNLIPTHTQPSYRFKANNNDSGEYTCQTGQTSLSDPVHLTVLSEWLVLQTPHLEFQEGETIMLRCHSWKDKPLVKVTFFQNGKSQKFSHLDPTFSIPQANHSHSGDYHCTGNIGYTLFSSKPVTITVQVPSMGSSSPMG


Legend:
Assay in all cases: SPR (Biacore); KD of H240-Kn033/H240-Hl033/L73-k0 divided by KD of this variant
FcgRIIIaV = target: T4, FcgRIIIaV (human, UniProt P08637 17-208)
T4 construct: extracellular domain; also called FcγRIIIa V; 3aV; not shown: His tag attached to the C terminus

FcgRIIb = target: T1, FcgRIIb
FcgRIIaR = target: T2, FcgRIIaR
FcgRIIIaF = target: T5, FcgRIIIaF (human, UniProt P08637 17-208)
T5 construct: extracellular domain; also called FcγRIIIa F; 3aF; not shown: His tag attached to the C terminus

FcgRIIaH = target: T3, FcgRIIaH

T4 sequence (P08637 17-208 F176V limits assumed): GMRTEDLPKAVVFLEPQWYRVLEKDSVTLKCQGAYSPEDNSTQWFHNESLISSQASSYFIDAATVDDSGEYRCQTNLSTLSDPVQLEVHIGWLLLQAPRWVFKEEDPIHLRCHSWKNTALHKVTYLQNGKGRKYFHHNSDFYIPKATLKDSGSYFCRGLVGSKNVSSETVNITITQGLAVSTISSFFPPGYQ
T5 sequence (P08637 17-208): as the sequence (P08637 17-208 F176V limits assumed) above, with V160F counted along it

Binder | fold 3aV (FcgRIIIaV) [fold] | fold 2b (FcgRIIb) [fold] | fold 2aR (FcgRIIaR) [fold] | fold 3aF (FcgRIIIaF) [fold] | fold 2aH (FcgRIIaH) [fold]
H240-Kn209/H240-Hl076/L73-k0 (antibody, human IgG1, kappa, Anti-epiregulin heterodimerized IgG1, knobs-into-holes) heavy 1: QDQLVQSGAEVKKPGASVKVSCKASGFNIKDTYIQWVRQAPGQGLEWMGRIDPLRKQTKYREKFEGRVTITADTSTNTAYMELSSLRSEDTAVYYCVRSGREFDYWGQGTLVTVSSASTKGPSVFPLAPSSKSTSGGTAALGCLVKDYFPEPVTVSWNSGALTSGVHTFPAVLQSSGLYSLSSVVTVPSSSLGTQTYICNVNHKPSNTKVDKKVEPKSCDKTHTCPPCPAPEQQWGPMVFLFPPKPKDTLMISRTPEVTCVVVDVSDEEPEVKFNWYVDGVEVHNAKTKPREEQYNATYRVVSVLTVLHQDWLNGKEYKCKVSNKALPAPIEKTISKAKGQPREPQVCTLPPSRDELTKNQVSLWCLVKGFYPSDIAVEWESNGQPENNYKTTPPVLDSDGSFFLYSKLTVDKSRWQQGNVFSCSVMHEALHNHYTQKSLSLSP heavy 2: QDQLVQSGAEVKKPGASVKVSCKASGFNIKDTYIQWVRQAPGQGLEWMGRIDPLRKQTKYREKFEGRVTITADTSTNTAYMELSSLRSEDTAVYYCVRSGREFDYWGQGTLVTVSSASTKGPSVFPLAPSSKSTSGGTAALGCLVKDYFPEPVTVSWNSGALTSGVHTFPAVLQSSGLYSLSSVVTVPSSSLGTQTYICNVNHKPSNTKVDKKVEPKSCDKTHTCPPCPAPELLGGPSVFLFPPKPKDTLMISRTPEVTCVVVDVSHEEPEVKFNWYVDGVEVHNAKTKPREEQYNSTYRVVSVLTVLHQDWLNGKEYKCKVSNDALPMPIEETISKAKGQPREPQVYTLPPSRCELTKNQVSLSCAVKGFYPSDIAVEWESNGQPENNYKTTPPVLDSDGSFFLVSKLTVDKSRWQQGNVFSCSVMHEALHNHYTQKSLSLSP light: DIQMTQSPSSLSASVGDRVTITCRASQDIHKYIAWYQQKPGQAPRLLIQYTSTLQPGVPSRFSGSGSGTDYTFTISSLQPEDIATYYCLQYEQLRTFGGGTKVEIKRTVAAPSVFIFPPSDEQLKSGTASVVCLLNNFYPREAKVQWKVDNALQSGNSQESVTEQDSKDSTYSLSSTLTLSKADYEKHKVYACEVTHQGLSSPVTKSFNRGEC | 77.4 | 0.4 | 0.6 | 121 | 2.1
H240-Kn210/H240-Hl076/L73-k0 (antibody, human IgG1, kappa, Anti-epiregulin heterodimerized IgG1, knobs-into-holes) heavy 1: QDQLVQSGAEVKKPGASVKVSCKASGFNIKDTYIQWVRQAPGQGLEWMGRIDPLRKQTKYREKFEGRVTITADTSTNTAYMELSSLRSEDTAVYYCVRSGREFDYWGQGTLVTVSSASTKGPSVFPLAPSSKSTSGGTAALGCLVKDYFPEPVTVSWNSGALTSGVHTFPAVLQSSGLYSLSSVVTVPSSSLGTQTYICNVNHKPSNTKVDKKVEPKSCDKTHTCPPCPAPEIQWGPMVFLFPPKPKDTLMISRTPEVTCVVVDVSDEEPEVKFNWYVDGVEVHNAKTKPREEQYNATYRVVSVLTVLHQDWLNGKEYKCKVSNKALPAPIEKTISKAKGQPREPQVCTLPPSRDELTKNQVSLWCLVKGFYPSDIAVEWESNGQPENNYKTTPPVLDSDGSFFLYSKLTVDKSRWQQGNVFSCSVMHEALHNHYTQKSLSLSP heavy 2: QDQLVQSGAEVKKPGASVKVSCKASGFNIKDTYIQWVRQAPGQGLEWMGRIDPLRKQTKYREKFEGRVTITADTSTNTAYMELSSLRSEDTAVYYCVRSGREFDYWGQGTLVTVSSASTKGPSVFPLAPSSKSTSGGTAALGCLVKDYFPEPVTVSWNSGALTSGVHTFPAVLQSSGLYSLSSVVTVPSSSLGTQTYICNVNHKPSNTKVDKKVEPKSCDKTHTCPPCPAPELLGGPSVFLFPPKPKDTLMISRTPEVTCVVVDVSHEEPEVKFNWYVDGVEVHNAKTKPREEQYNSTYRVVSVLTVLHQDWLNGKEYKCKVSNDALPMPIEETISKAKGQPREPQVYTLPPSRCELTKNQVSLSCAVKGFYPSDIAVEWESNGQPENNYKTTPPVLDSDGSFFLVSKLTVDKSRWQQGNVFSCSVMHEALHNHYTQKSLSLSP light: DIQMTQSPSSLSASVGDRVTITCRASQDIHKYIAWYQQKPGQAPRLLIQYTSTLQPGVPSRFSGSGSGTDYTFTISSLQPEDIATYYCLQYEQLRTFGGGTKVEIKRTVAAPSVFIFPPSDEQLKSGTASVVCLLNNFYPREAKVQWKVDNALQSGNSQESVTEQDSKDSTYSLSSTLTLSKADYEKHKVYACEVTHQGLSSPVTKSFNRGEC | 98 | 0.8 | 1.3 | 161 | 3.5
